Measured values published in patent EP4660205A1 (Beijing Wisdomab Biotechnology Co., Ltd, dated 2025).
Like-named read-outs stand apart in the source and are kept apart here.

T1: hIL-36R-His (extracellular domain of human IL-36R with C-terminal His tag) (human (homo sapiens), UniProt Q9HB29 20-335)
T1 construct: also called human hIL-36R-His
T1 sequence: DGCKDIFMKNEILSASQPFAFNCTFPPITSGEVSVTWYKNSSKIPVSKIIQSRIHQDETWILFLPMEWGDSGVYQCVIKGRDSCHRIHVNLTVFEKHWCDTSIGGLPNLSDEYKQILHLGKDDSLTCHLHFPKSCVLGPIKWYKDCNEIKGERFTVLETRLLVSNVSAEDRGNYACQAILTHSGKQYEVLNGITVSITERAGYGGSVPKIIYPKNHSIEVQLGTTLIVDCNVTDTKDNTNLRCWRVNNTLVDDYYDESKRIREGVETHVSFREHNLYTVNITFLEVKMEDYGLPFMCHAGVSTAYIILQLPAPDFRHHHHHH

T2: human IL-36R on the cell surface (HEK-Blue IL-36 cells, HaCAT cells, human CD14+ monocytes) (human, UniProt Q9HB29 20-575)
T2 sequence (looked up): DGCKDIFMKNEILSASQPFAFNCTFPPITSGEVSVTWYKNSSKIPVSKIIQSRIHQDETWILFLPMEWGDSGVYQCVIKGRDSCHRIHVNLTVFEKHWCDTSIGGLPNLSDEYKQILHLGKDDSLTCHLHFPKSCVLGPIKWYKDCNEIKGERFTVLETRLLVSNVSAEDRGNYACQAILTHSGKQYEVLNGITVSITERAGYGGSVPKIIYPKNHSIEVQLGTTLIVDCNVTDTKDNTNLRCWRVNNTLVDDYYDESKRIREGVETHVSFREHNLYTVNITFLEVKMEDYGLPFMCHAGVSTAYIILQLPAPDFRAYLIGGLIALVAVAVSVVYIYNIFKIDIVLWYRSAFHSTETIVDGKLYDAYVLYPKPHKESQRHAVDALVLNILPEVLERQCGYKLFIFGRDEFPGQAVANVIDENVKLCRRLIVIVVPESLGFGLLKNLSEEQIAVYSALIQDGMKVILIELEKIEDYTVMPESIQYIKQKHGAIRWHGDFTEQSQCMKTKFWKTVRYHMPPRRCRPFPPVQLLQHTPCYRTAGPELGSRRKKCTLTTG

T3: hIL-1R3-His (extracellular domain of human IL-1R3 with C-terminal His tag) (human (homo sapiens), UniProt Q9NPH3 21-359)
T3 sequence: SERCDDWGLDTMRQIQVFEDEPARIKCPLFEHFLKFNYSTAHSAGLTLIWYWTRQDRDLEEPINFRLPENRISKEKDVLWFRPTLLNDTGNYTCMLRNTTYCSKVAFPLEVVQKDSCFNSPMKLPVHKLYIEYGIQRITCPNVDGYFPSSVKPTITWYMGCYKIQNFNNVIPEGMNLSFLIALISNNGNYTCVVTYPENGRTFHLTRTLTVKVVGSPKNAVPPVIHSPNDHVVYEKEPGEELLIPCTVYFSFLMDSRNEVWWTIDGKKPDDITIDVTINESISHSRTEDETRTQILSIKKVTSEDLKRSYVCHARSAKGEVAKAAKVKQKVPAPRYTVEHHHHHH

T4: human IL-1R3 on the cell surface (HaCAT cells, PBMC/NK cells, MRC-5 cells) (human, UniProt Q9NPH3 21-570)
T4 sequence (looked up): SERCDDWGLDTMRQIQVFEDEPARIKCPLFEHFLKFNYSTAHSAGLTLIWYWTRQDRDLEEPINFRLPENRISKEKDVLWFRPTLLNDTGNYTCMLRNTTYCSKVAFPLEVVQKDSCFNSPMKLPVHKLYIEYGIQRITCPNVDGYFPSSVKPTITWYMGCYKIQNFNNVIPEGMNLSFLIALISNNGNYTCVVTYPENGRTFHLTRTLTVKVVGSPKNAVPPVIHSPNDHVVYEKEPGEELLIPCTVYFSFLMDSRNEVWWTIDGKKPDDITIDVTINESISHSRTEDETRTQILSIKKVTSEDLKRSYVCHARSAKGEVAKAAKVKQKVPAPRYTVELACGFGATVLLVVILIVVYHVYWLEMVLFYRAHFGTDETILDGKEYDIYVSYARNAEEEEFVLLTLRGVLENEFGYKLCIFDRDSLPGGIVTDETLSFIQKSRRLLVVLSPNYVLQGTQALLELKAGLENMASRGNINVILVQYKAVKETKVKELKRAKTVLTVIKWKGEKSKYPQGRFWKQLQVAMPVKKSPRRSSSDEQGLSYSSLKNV


How the values were obtained:
[1] = biological target: T1, hIL-36R-His (extracellular domain of …); assay: SPR (Biacore T200), antibody captured by anti-human Fc, hIL-36R-His as analyte, 1:1 model
[2] = biological target: T2, human IL-36R on the cell surface …; assay: cell-based or functional assay
[3] = biological target: T2, human IL-36R on the cell surface …; assay: cell-based or functional assay; remark: listed apart in the source
[4] = biological target: T3, hIL-1R3-His (extracellular domain of …); assay: SPR (Biacore T200), antibody captured by anti-human Fc, hIL-1R3-His as analyte, 1:1 model
[5] = biological target: T2, human IL-36R on the cell surface …; assay: cell-based or functional assay; remark: listed apart in the source
[6] = biological target: T1, hIL-36R-His (extracellular domain of …); assay: SPR (Biacore T200), antibody captured by anti-human Fc, hIL-36R-His as analyte, 1:1 model; remark: listed apart in the source
[7] = biological target: T2, human IL-36R on the cell surface …; assay: cell-based or functional assay; remark: listed apart in the source
[8] = biological target: T1, hIL-36R-His (extracellular domain of …); assay: SPR (Biacore T200), antibody captured by anti-human Fc, hIL-36R-His as analyte, 1:1 model; remark: listed apart in the source
[9] = biological target: T3, hIL-1R3-His (extracellular domain of …); assay: SPR (Biacore T200), antibody captured by anti-human Fc, hIL-1R3-His as analyte, 1:1 model; remark: listed apart in the source
[10] = biological target: T4, human IL-1R3 on the cell surface (HaCAT …); assay: cell-based or functional assay
[11] = biological target: T3, hIL-1R3-His (extracellular domain of …); assay: SPR (Biacore T200), antibody captured by anti-human Fc, hIL-1R3-His as analyte, 1:1 model; remark: listed apart in the source

Binder | IC50 for inhibiting IL-36α from inducing hIL-8 secretion by HaCAT cells [3] | IC50 for inhibiting IL-36β from inducing hIL-8 secretion by HaCAT cells [3] | IC50 for inhibiting IL-36γ from inducing hIL-8 secretion by HaCAT cells [3] | Kd [4] | koff [4] | kon [4] | IC50 for inhibiting IL-36α from inducing hIL-8 secretion by HaCAT cells [7] | IC50 for inhibiting IL-36β from inducing hIL-8 secretion by HaCAT cells [7] | IC50 for inhibiting IL-36γ from inducing hIL-8 secretion by HaCAT cells [7] | Kd [8] | koff [8] | kon [8] | other results
R72B7VH+L36E9VK (antibody, V domains shown, also called R72B7VH+L36E9VK monoclonal antibody) VH: QVQLVQSGAEVKKPGASVKVSCKASGYSFTSSWIHWVKQAPGQGLEWMGEINPGNVRSNYNENFRNKVTMTVDTSISTAYMELSRLRSDDTAVYYCTVINYGEPYFASWGQGTLVTVSS VL: EIVLTQSPGTLSLSPGERATLSCRASQSVIGSYLAWYQQKPGQAPRLLIYSASKLASGIPDRFSGSGSGTDFTLTISRLEPEDFAVYYCQQDTRYPITFGQGTKVEIK | – | – | – | – | – | – | 0.508 nM | 0.511 nM | 3.65 nM | 1.65 nM | 5.4e-05 s⁻¹ | 32800 M⁻¹ s⁻¹ | –
R49E11VH-h3+L36E9VK (antibody, V domains shown) VH: QVQLVQSGAEVKKPGASVKVSCKASGYSFTSSWIHWVRQAPGQGLEWMGEINPGSGRSNYNENFQGRVTMTVDTSISTAYMELSRLRSDDTAVYYCTVVFYGEPYFPFWGQGTLVTVSS VL: EIVLTQSPGTLSLSPGERATLSCRASQSVIGSYLAWYQQKPGQAPRLLIYSASKLASGIPDRFSGSGSGTDFTLTISRLEPEDFAVYYCQQDTRYPITFGQGTKVEIK | – | – | – | – | – | – | – | – | – | 11.4 nM | 9.94e-05 s⁻¹ | 8690 M⁻¹ s⁻¹ | –
R1B9VH-h1+R1B9VK-h1 (antibody, V domains shown, also called humanized IL-1R3 antibody; R1B9VH-hl+R1B9VK-h1) VH: EVQLVESGGGLVQPGGSLRLSCAASGFTFSSYAMSWVRQAPGKGLVWVAEISRGGSHTYYPDTVTGRFTISRDNAKNTLYLQMNSLRAEDTAVYYCARSYGNYPFDYWGQGTTVTVSS VL: EIVLTQSPATLSLSPGERATLSCSASSSVSYMYWYQQKPGQAPRLLIYDTSNLASGIPARFSGSGSGTDFTLTISSLEPEDFAVYYCQQWSSYPLTFGQGTKLEIK | – | – | – | 1.45 nM | 0.000153 s⁻¹ | 106000 M⁻¹ s⁻¹ | – | – | – | – | – | – | Kd [9]: 1.12 nM; koff [9]: 0.000111 s⁻¹; kon [9]: 99200 M⁻¹ s⁻¹; IC50 for inhibiting IL-36α from inducing hIL-8 secretion by HaCAT cells [10]: 0.195 nM; IC50 for inhibiting IL-36β from inducing hIL-8 secretion by HaCAT cells [10]: 0.0961 nM; IC50 for inhibiting IL-36γ from inducing hIL-8 secretion by HaCAT cells [10]: 0.608 nM; Kd [11]: 1.45 nM; koff [11]: 0.000153 s⁻¹; kon [11]: 106000 M⁻¹ s⁻¹

Second part, led by results:

IC50 for inhibiting IL-36α from inducing hIL-8 secretion by HaCAT cells [3] | IC50 for inhibiting IL-36β from inducing hIL-8 secretion by HaCAT cells [3] | IC50 for inhibiting IL-36γ from inducing hIL-8 secretion by HaCAT cells [3] | Kd [4] | koff [4] | kon [4] | IC50 for inhibiting IL-36α from inducing hIL-8 secretion by HaCAT cells [7] | IC50 for inhibiting IL-36β from inducing hIL-8 secretion by HaCAT cells [7] | IC50 for inhibiting IL-36γ from inducing hIL-8 secretion by HaCAT cells [7] | Kd [8] | koff [8] | kon [8] | Binder | other results
0.0183 nM | 0.0211 nM | 0.0184 nM | 0.761 nM | 0.000155 s⁻¹ | 203000 M⁻¹ s⁻¹ | – | – | – | – | – | – | Crossmab bispecific antibody (R1B9VH-h1+R1B9VK-h1-Fab-cross+R49E11VH-h3+L26B11VK-Fab) (bispecific antibody, human IgG1, kappa, also called IL-36R×IL-1R3 Crossmab bispecific antibody) heavy 1: QVQLVQSGAEVKKPGASVKVSCKASGYSFTSSWIHWVRQAPGQGLEWMGEINPGSGRSNYNENFQGRVTMTVDTSISTAYMELSRLRSDDTAVYYCTVVFYGEPYFPFWGQGTLVTVSSASTKGPSVFPLAPSSKSTSEGTAALGCLVKDYFPEPVTVSWNSGALTSGVHTFPAVLQSSGLYSLSSVVTVPSSSLGTQTYICNVDHKPSNTKVDKTVEPKSCDKTHTCPPCPAPEFEGGPSVFLFPPKPKDTLMISRTPEVTCVVVDVSQEDPEVQFNWYVDGVEVHNAKTKPREEQYNSTYRVVSVLTVLHQDWLNGKEYKCKVSNKALPASIEKTISKAKGQPREPQVCTLPPSQEEMTKNQVSLSCAVKGFYPSDIAVEWESNGQPENNYKTTPPVLDSDGSFFLVSKLTVDKSRWQEGNVFSCSVMHEALHNHYTQKSLSLSPGK light 1: EIVLTQSPGTLSLSPGERATLSCRASQSVIYSYLAWYQQKPGQAPRLLIYSASKRASGIPDRFSGSGSGTDFTLTISRLEPEDFAVYYCQQHAGIPVTFGQGTKVEIKRTVAAPSVFIFPPSDEQLKSGTASVVCLLNNFYPREAKVQWKVDNALQSGNSQESVTEQDSKDSTYSLSSTLTLSKADYEKHKVYACEVTHQGLSSPVTKSFNRGEC heavy 2: EVQLVESGGGLVQPGGSLRLSCAASGFTFSSYAMSWVRQAPGKGLVWVAEISRGGSHTYYPDTVTGRFTISRDNAKNTLYLQMNSLRAEDTAVYYCARSYGNYPFDYWGQGTTVTVSSASVAAPSVFIFPPSDEQLKSGTASVVCLLNNFYPREAKVQWKVDNALQSGNSQESVTEQDSKDSTYSLSSTLTLSKADYEKHKVYACEVTHQGLSSPVTKSFNRGECDKTHTCPPCPAPEFEGGPSVFLFPPKPKDTLMISRTPEVTCVVVDVSHEDPEVKFNWYVDGVEVHNAKTKPREEQYNSTYRVVSVLTVLHQDWLNGKEYKCKVSNKALPASIEKTISKAKGQPREPQVYTLPPCREEMTKNQVSLWCLVKGFYPSDIAVEWESNGQPENNYKTTPPVLDSDGSFFLYSKLTVDKSRWQQGNVFSCSVMHEALHNHYTQKSLSLSPGK light 2: EIVLTQSPATLSLSPGERATLSCSASSSVSYMYWYQQKPGQAPRLLIYDTSNLASGIPARFSGSGSGTDFTLTISSLEPEDFAVYYCQQWSSYPLTFGQGTKLEIKSSASTKGPSVFPLAPSSKSTSGGTAALGCLVKDYFPEPVTVSWNSGALTSGVHTFPAVLQSSGLYSLSSVVTVPSSSLGTQTYICNVNHKPSNTKVDKRVEPKSC | Kd [1]: 0.669 nM; koff [1]: 4.37e-05 s⁻¹; kon [1]: 65400 M⁻¹ s⁻¹; fold increase of activity by IC50 against R49E11VH-h3+L26B11VK, IL-36α, HaCAT hIL-8 secretion [2]: ~3 fold; fold increase of activity by IC50 against R49E11VH-h3+L26B11VK, IL-36β, HaCAT hIL-8 secretion [2]: ~13 fold; fold increase of activity by IC50 against R49E11VH-h3+L26B11VK, IL-36γ, HaCAT hIL-8 secretion [2]: ~103 fold
0.0433 nM | 0.172 nM | 0.642 nM | – | – | – | 0.0939 nM | 0.114 nM | 0.682 nM | – | – | – | Spesolimab (antibody, V domains shown, Made in house from the variable regions of US9023995B2 as a whole IgG1m3 subtype antibody (control)) VH: QVQLVQSGAEVKKPGASVKVSCKASGYSFTSSWIHWVKQAPGQGLEWMGEINPGNVRTNYNENFRNKVTMTVDTSISTAYMELSRLRSDDTAVYYCTVVFYGEPYFPYWGQGTLVTVSS VL: QIVLTQSPGTLSLSPGERATMTCTASSSVSSSYFHWYQQKPGQAPRLWIYRTSRLASGVPDRFSGSGSGTDFTLTISRLEPEDAATYYCHQFHRSPLTFGAGTKLEIK | IC50 for inhibiting IL-36γ-induced hIL-8 secretion by human monocytes [5]: 0.0288 nM; Kd [6]: 2.56 nM; koff [6]: 7.39e-05 s⁻¹; kon [6]: 28800 M⁻¹ s⁻¹
